Reference: patent publication US20100184636

Molecular target: endogenous raptor (UniProt Q8N122)
Sequence (Q8N122 whole entry, looked up): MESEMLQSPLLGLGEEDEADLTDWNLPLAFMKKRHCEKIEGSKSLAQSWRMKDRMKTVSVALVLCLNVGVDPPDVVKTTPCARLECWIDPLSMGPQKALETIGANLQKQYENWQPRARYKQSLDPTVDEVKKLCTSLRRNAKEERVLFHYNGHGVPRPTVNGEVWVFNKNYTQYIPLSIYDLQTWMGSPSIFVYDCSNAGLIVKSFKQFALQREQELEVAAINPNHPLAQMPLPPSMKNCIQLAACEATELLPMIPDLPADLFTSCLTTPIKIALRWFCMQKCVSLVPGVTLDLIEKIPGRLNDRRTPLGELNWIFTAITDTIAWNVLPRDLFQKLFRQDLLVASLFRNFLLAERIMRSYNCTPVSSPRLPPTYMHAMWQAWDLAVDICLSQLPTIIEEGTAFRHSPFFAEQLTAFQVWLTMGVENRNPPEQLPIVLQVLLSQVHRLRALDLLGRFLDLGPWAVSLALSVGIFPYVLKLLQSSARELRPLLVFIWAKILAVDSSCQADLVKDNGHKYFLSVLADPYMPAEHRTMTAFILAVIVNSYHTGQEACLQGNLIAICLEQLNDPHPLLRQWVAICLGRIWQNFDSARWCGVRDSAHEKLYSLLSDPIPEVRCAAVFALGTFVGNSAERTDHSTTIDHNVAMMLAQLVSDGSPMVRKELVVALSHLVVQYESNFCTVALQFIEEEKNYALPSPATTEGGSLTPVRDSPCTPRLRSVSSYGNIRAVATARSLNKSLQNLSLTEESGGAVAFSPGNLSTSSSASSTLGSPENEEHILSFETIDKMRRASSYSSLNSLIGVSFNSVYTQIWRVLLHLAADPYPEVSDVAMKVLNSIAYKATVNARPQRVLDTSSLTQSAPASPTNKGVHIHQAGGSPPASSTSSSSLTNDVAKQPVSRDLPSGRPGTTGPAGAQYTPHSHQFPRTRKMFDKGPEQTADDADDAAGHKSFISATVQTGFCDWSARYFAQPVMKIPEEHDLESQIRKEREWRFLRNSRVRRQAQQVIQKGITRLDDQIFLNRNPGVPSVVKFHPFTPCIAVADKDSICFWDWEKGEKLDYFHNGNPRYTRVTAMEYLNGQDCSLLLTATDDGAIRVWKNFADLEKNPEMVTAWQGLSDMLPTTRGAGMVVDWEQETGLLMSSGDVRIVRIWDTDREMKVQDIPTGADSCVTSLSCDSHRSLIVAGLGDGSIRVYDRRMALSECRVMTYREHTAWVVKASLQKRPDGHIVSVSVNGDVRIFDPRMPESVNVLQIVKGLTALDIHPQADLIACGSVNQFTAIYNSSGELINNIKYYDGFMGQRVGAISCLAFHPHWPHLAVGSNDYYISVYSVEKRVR

phospholipase D2, wild type (PLD2^wt)
exogenous PA-dependent phosphorylation of S6K1 (add-back): the exogenous PA-dependent phosphorylation of S6K1 was rescued by PLD2^wt and PLD2^K758R, but not by PLD2^F265A and PLD2^E266R
